Measured values: paper PMC6593402, “The Structure of an Injectisome Export Gate Demonstrates Conservation of Architecture in the Core Export Gate between Flagellar and Virulence Type III Secretion Systems” (mBio, 2019)
Values joined by “and” are separate entries in the source; they are usually repeats but may differ in a detail not shown here. Equal values may be shown once.

T1: Salmonella enterica serovar Typhimurium FliR (Salmonella enterica serovar Typhimurium, UniProt P54702 1-264)
T1 construct: FliR, flagellar export gate component, Salmonella enterica serovar Typhimurium; expressed from the complete operon; 'full length' rests on the words 'the same strategy of expression of the complete operon'; source: purified from membranes
T1 sequence: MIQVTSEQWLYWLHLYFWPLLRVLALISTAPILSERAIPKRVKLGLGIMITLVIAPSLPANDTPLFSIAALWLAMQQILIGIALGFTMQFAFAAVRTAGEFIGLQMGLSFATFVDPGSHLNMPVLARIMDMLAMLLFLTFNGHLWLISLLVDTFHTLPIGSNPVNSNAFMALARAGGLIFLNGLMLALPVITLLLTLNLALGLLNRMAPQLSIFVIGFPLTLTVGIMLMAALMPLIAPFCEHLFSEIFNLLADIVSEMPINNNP

B1: Salmonella enterica serovar Typhimurium FliQ (natural protein)
chain: MTPESVMMMGTEAMKVALALAAPLLLVALITGLIISILQAATQINEMTLSFIPKIVAVFIAIIVAGPWMLNLLLDYVRTLFSNLPYIIG
notes: FliQ, flagellar export gate component, Salmonella enterica serovar Typhimurium; expressed from the complete operon; 'full length' rests on the words 'the same strategy of expression of the complete operon'; source: purified from membranes
B2: Shigella flexneri SctS (Spa9) (natural protein)
chain: MSDIVYMGNKALYLILIFSLWPVGIATVIGLSIGLLQTVTQLQEQTLPFGIKLIGVSISLLLLSGWYGEVLLSFCHEIMFLIKSGV
notes: Spa9 (SctS), export gate component of the Shigella flexneri virulence type III secretion system; expressed from the complete operon (Spa24/Spa9/Spa29); Two to four copies stand in the SctRST complexes; 'full length' rests on the words 'expression of the complete operon'; source: E. coli BL21, co-expressed from plasmid pT12_Spa24929, membranes dissolved in 1% LMNG, purified (StrepTrap, SEC)
B3: Salmonella enterica serovar Typhimurium FliP (natural protein)
chain: QLPGLISQPLAGGGQSWSLSVQTLVFITSLTFLPAILLMMTSFTRIIIVFGLLRNALGTPSAPPNQVLLGLALFLTFFIMSPVIDKIYVDAYQPFSEQKISMQEALDKGAQPLRAFMLRQTREADLALFARLANSGPLQGPEAVPMRILLPAYVTSELKTAFQIGFTIFIPFLIIDLVIASVLMALGMMMVPPATIALPFKLMLFVLVDGWQLLMGSLAQSFYS
notes: FliP, flagellar export gate component, Salmonella enterica serovar Typhimurium; expressed from the complete operon; source: purified from membranes

Assays:
[1] = target: the molecule itself; experiment: cryo-EM structure; re-refinement in RELION-3 of the original S. Typhimurium FliPQR single-particle data of ref. 17 (particle polishing, per-particle CTF refinement), 3.65 Å; coordinates remodeled and re-refined
[2] = target: T1, Salmonella enterica serovar Typhimurium …; experiment: as above; conditions: both partners purified
[3] = target: B3; experiment: as above; conditions: both partners purified
[4] = target: the molecule itself; experiment: cryo-EM structure; SctRST co-expressed from the operon in E. coli, complex purified by the Dual-Strep tag on SctT and SEC; 0.01% LMNG in TBS (100 mM Tris, 150 mM NaCl, 1 mM EDTA, pH 8), 8.4 mg/ml; single-particle reconstruction at 3.5 Å, with further 3D classification of the particle set

Binder | binding result [1] | binding result [2] | binding result [3] | stoichiometry N [4]
B1 | binds | binds | binds | 
B2 |  |  |  | 2 and 3
B3 | binds | binds |  | 
